The results in this text go back to patent publication US20040127419A1 (Amgen, published 2004).

In the experiment the target is T1, mature human glial cell line-derived neurotrophic factor (hGDNF), CHO cell-expressed (human, UniProt P39905 78-211, glycosylated (N-linked sugar, about 4.5 kDa)).
T1 construct: The native protein is a disulfide-bonded homodimer (44 kDa on non-reducing gels); also called mature GDNF; 22 kDa band
T1 chain: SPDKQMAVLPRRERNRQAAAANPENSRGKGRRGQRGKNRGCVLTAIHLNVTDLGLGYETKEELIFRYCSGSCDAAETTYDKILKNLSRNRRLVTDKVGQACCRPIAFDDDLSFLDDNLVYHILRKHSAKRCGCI
As to the kind of experiment: purification from CHO conditioned medium, Western blot and N-terminal sequencing; disulfide-bonded dimer. How it is done:
The following process describes the purification of CHO-expressed GDNF and a CHO-derived clipped GDNF homodimer, from one liter of conditioned media. Because of significant protease action in the CHO medium, clipping the chain at residue 31, the procedure may include the use of a protease inhibitor during purification.
Serum free conditioned media was made 20 mM 2-[N-Morpholino] ethane sulfonate (MES), pH 6.0, by adding one fiftieth volume of 1 M MES, pH 6.0. Twenty five milliliters of SP Sepharose Big Bead resin (Pharmacia), equilibrated with 20 mM MES, pH 6.0, was added and stirred at 4° C. for one hour. The resin was collected by allowing it to settle and decanting off the conditioned media. The decanted media was filtered through a fritted disc filter to recover any unsettled resin. […] Protein was eluted with a 300 ml gradient from A buffer to 1.0 M NaCl, 20 mM MES, pH 6.0 (B buffer), at a flow rate of 0.2 column volumes/minute with absorbance monitored at 280 nm. […] The presence of GDNF in the fractions was detected by Western blotting analysis. […]
Fractions containing GDNF from Step 2 were resolublized in one milliliter of 0.15 M NaCl, 10 mM Tris, pH 8.0, and applied to a 0.75×7.5 cm TSK-Gel 5WP high performance S column (Toso Haas). […] One minute fractions were collected with absorbance measured at 280 nm. […]
In general terms: A western blot detects proteins with antibodies after separation by electrophoresis.

B1: [Arg32-Ile134] truncated GDNF protein, CHO cell-derived (ligand)
chain: RGQRGKNRGCVLTAIHLNVTDLGLGYETKEELIFRYCSGSCDAAETTYDKILKNLSRNRRLVTDKVGQACCRPIAFDDDLSFLDDNLVYHILRKHSAKRCGCI
modifications: glycosylated (N-linked and O-linked sugars)
notes: It forms a disulfide-bonded homodimer (36 kDa) or a heterodimer with mature GDNF (40 kDa); A later purification also found a [Lys37-Ile134] form; also called clipped GDNF; 18 kDa band
Consider B1, for which the binding result was “binds”.
